Measured values: the supplement of paper PMC7125110
± gives the standard error. For some of these results: Variants at the floor of the assay were thinned out.

B1: glmS ribozyme (parent)
chain: AUAAAAGCGCCAGAACUACAGAAAUGUAGUUGACGAGGAGGAGGUUUAUCGAAUUUUCGGCGGAUGCCUCCAAA

Tests used:
Conditions in all cases: with glucosamine-6-phosphate
glucosamine-6-phosphate [1] = variants of: B1; test: kcat; higher = faster cleavage; RNA array
Summary of the method: (§1)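 Barcoded ribozyme variants, transcribed in situ by E. coli RNA polymerase on sequenced MiSeq chips, were followed via a hybridised Cy3 probe at 37 °C. Glucosamine-6-phosphate ranged from 40 μM to 10 mM in HEPES/KCl/Mg(OAc)2 buffer. kobs came from decay fits to per-tile medians, and kcat and KM from weighted Michaelis–Menten fits.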

glucosamine-6-phosphate [2] = variants of: B1; test: KM; higher = weaker cofactor use; RNA array
Summary of the method: as §1

glucosamine-6-phosphate [3] = variants of: B1; test: self-cleavage kobs at 40 uM GlcN6P; higher = faster cleavage; RNA array
Summary of the method: as §1

glucosamine-6-phosphate [4] = variants of: B1; test: self-cleavage kobs at 160 uM GlcN6P; higher = faster cleavage; RNA array
Summary of the method: as §1

glucosamine-6-phosphate [5] = variants of: B1; test: self-cleavage kobs at 640 uM GlcN6P; higher = faster cleavage; RNA array
Summary of the method: as §1

glucosamine-6-phosphate [6] = variants of: B1; test: self-cleavage kobs at 2500 uM GlcN6P; higher = faster cleavage; RNA array
Summary of the method: as §1

glucosamine-6-phosphate [7] = variants of: B1; test: self-cleavage kobs at 10000 uM GlcN6P; higher = faster cleavage; RNA array
Summary of the method: as §1

Row | Variant | kcat (glucosamine-6-phosphate [1]) [s⁻¹] | KM (glucosamine-6-phosphate [2]) [µM] | self-cleavage kobs at 40 uM GlcN6P (glucosamine-6-phosphate [3]) [s⁻¹] | self-cleavage kobs at 160 uM GlcN6P (glucosamine-6-phosphate [4]) [s⁻¹] | self-cleavage kobs at 640 uM GlcN6P (glucosamine-6-phosphate [5]) [s⁻¹] | self-cleavage kobs at 2500 uM GlcN6P (glucosamine-6-phosphate [6]) [s⁻¹] | self-cleavage kobs at 10000 uM GlcN6P (glucosamine-6-phosphate [7]) [s⁻¹]
1 | G29U C68U | 0.0008 ± 6.2e-05 | 1710 ± 230 | 2.51e-05 ± 1e-05 | 6.87e-05 ± 1e-05 | 0.00022 ± 2.5e-05 | 0.000435 ± 5.5e-05 | 0.000719 ± 7.8e-05
2 | C34U G43A | < 1e-05 |  | < 1e-05 | < 1e-05 |  |  | 
3 | A6U A42G | 0.000505 ± 0.00011 | 3730 ± 1400 |  |  | 8.54e-05 ± 1.6e-05 | 0.000156 ± 5.1e-05 | 0.00038 ± 6e-05
4 | A53C C70U | 0.00487 ± 0.0012 | 2220 ± 670 | 0.000105 ± 1.2e-05 | 0.000315 ± 2.6e-05 | 0.000893 ± 0.00013 | 0.00403 ± 0.0007 | 0.00392 ± 0.00044
5 | U56A A64C | 6.42e-05 ± 1e-05 |  | < 1e-05 |  |  | 6.08e-05 ± 1.1e-05 | 5.71e-05 ± 9.1e-06
6 | G59U C70U | 9.84e-05 ± 6.1e-06 | 899 ± 210 |  |  | 4.56e-05 ± 9.2e-06 | 6.69e-05 ± 8.1e-06 | 9.36e-05 ± 8.8e-06
7 | A14G U69G | 0.000107 ± 2.2e-05 |  | 8.24e-05 ± 1.9e-05 | 5.73e-05 ± 1.7e-05 | 0.000175 ± 3.5e-05 | 0.000103 ± 2e-05 | 0.000113 ± 1.8e-05
8 | G9U A42G U47C | < 1e-05 |  |  | < 1e-05 | < 1e-05 |  | 
9 | C16G U45A | 0.0107 ± 0.0033 | 2340 ± 1100 | 0.000245 ± 3.1e-05 | 0.00048 ± 0.00013 | 0.00226 ± 0.00044 | 0.00423 ± 0.00082 | 0.0101 ± 0.0013
10 | G40C C71G | 0.0271 ± 0.0085 | 1170 ± 420 | 0.000948 ± 8.7e-05 | 0.0028 ± 0.00046 | 0.00953 ± 0.0017 | 0.0203 ± 0.0057 | 
11 | A39G U45G | 0.0109 ± 0.0044 |  | 0.00047 ± 6.3e-05 | 0.00207 ± 0.00047 | 0.00416 ± 0.00099 | 0.00467 ± 0.0013 | 0.0173 ± 0.0023
12 | A15U A52U C68A | 2.12e-05 ± 5.2e-06 |  |  |  |  |  | < 1e-05
13 | A6U C67A | 7.39e-05 ± 6.8e-06 |  |  |  | 6.68e-05 ± 1.7e-05 | 5.62e-05 ± 1.1e-05 | 7.43e-05 ± 7.2e-06
14 | G38A G59C | < 1e-05 |  | < 1e-05 |  | < 1e-05 |  | < 1e-05
15 | C58U C61U | < 1e-05 |  | < 1e-05 |  | < 1e-05 |  | 
16 | G29C A39U | 0.00205 ± 0.00072 |  | 5.54e-05 ± 1.3e-05 | 6.75e-05 ± 1.6e-05 | 0.000323 ± 6.3e-05 | 0.000753 ± 0.00014 | 0.00153 ± 0.00022

Row | Variant | kcat (glucosamine-6-phosphate [1]) [s⁻¹] | KM (glucosamine-6-phosphate [2]) [µM] | self-cleavage kobs at 40 uM GlcN6P (glucosamine-6-phosphate [3]) [s⁻¹] | self-cleavage kobs at 160 uM GlcN6P (glucosamine-6-phosphate [4]) [s⁻¹] | self-cleavage kobs at 640 uM GlcN6P (glucosamine-6-phosphate [5]) [s⁻¹] | self-cleavage kobs at 2500 uM GlcN6P (glucosamine-6-phosphate [6]) [s⁻¹] | self-cleavage kobs at 10000 uM GlcN6P (glucosamine-6-phosphate [7]) [s⁻¹]
17 | A64G U69G C71A | 2.3e-05 ± 7.7e-06 |  |  |  |  |  | 
18 | U69A C70U | 6.79e-05 ± 5.4e-06 |  |  | 3.52e-05 ± 1e-05 | 4.97e-05 ± 8.2e-06 | 7.15e-05 ± 7.1e-06 | 6.03e-05 ± 7.8e-06
19 | G41C G66A | 0.00127 ± 0.00038 | 4000 ± 1900 |  | 6.76e-05 ± 2.3e-05 | 0.00013 ± 3.9e-05 | 0.000621 ± 0.00011 | 0.000851 ± 0.00016
20 | U56G G66U | 0.000858 ± 0.00012 | 1780 ± 400 | 3.12e-05 ± 8.7e-06 | 6.25e-05 ± 7.4e-06 | 0.000237 ± 2.4e-05 | 0.000576 ± 5.7e-05 | 0.000682 ± 6.4e-05
21 | A14U A53C | 0.00136 ± 0.00017 | 1970 ± 410 | 3.59e-05 ± 9.1e-06 | 9.57e-05 ± 1.5e-05 | 0.000309 ± 3.9e-05 | 0.000834 ± 7.7e-05 | 0.00105 ± 0.00014
22 | A42G G44C U56A C70U | < 1e-05 |  |  | < 1e-05 |  | < 1e-05 | 
23 | C34G G63U C68G | 2.21e-05 ± 7.4e-06 |  |  |  |  |  | 
24 | U31G U56G C67U | 0.00109 ± 0.00017 | 2910 ± 800 |  | 8.73e-05 ± 3.2e-05 | 0.000176 ± 5.1e-05 | 0.000493 ± 0.00014 | 0.00086 ± 0.00015
25 | U46A C70A | 0.000184 ± 2.2e-05 | 633 ± 260 |  |  | 0.000115 ± 2.6e-05 | 0.000146 ± 2.7e-05 | 0.000167 ± 2.9e-05
26 | A39C A48U | 0.000107 ± 1.8e-05 | 2930 ± 1400 | < 1e-05 | < 1e-05 |  | 5.68e-05 ± 1.3e-05 | 8.1e-05 ± 1.2e-05
27 | C50U U55A | 8.88e-05 ± 8.3e-06 | 2350 ± 570 |  |  | 2.43e-05 ± 9.1e-06 | 4.32e-05 ± 6.8e-06 | 7.37e-05 ± 9.9e-06
28 | G41U U56A | 0.00219 ± 0.00072 | 4700 ± 2000 | 3.42e-05 ± 8.2e-06 | 7.37e-05 ± 1.6e-05 | 0.000234 ± 3.5e-05 | 0.000769 ± 0.0001 | 0.00153 ± 0.00029
29 | G37C C70G | 1.47e-05 ± 4.3e-06 |  |  |  |  |  | 
30 | G7C A53G | < 1e-05 |  |  |  |  |  | < 1e-05
31 | C10A U57G | < 1e-05 |  | < 1e-05 |  |  |  | 
32 | G29A U57A | 4e-05 ± 1.6e-06 | 877 ± 180 |  |  |  |  | 3.64e-05 ± 1.7e-05
